The source of these data is PMC5484120 (Marine Drugs, 2017).

Where no end group is shown, it is not given here. The star is where a group is joined. Cam = NC(=O)C*

One test concerns N-type Ca^2+ channel. Particulars: cited from earlier work.
Test [1] deals with O-conotoxin GeXXVIIA, native form (disulfide-linked homodimer) (Conus generalis). Briefly: mass spectrometry before and after reduction with DTT.
For another test, the system named is α9α10 nAChR. Particulars: cited from earlier work.
Test [2] relates to rat models of neuropathic pain. Particulars: in vivo; cited from earlier work.
Test [3] addresses human α9α10 nicotinic acetylcholine receptor (human) (UniProt Q9UGM1).
The target of test [4] is rodent α1β1εδ nicotinic acetylcholine receptor (rat α1, β1, δ; mouse ε) (rat | mouse) (UniProt P25108).

With ω-conotoxin MVIIA, the “N-type Ca2+ channel inhibition (in words)” value in the test with N-type Ca^2+ channel was “selective N-type Ca^2+ channel inhibitor”. The molecule “O-conotoxin GeXXVIIA, native form (disulfide-linked homodimer) (peptide)” gave a stoichiometry N in test [1] of 2. Regarding Vc1.1, the IC50 in the test on α9α10 nAChR was 19 nM. In addition, the “pain relief in rat models of neuropathic pain” value in test [2] is on record as “long lasting relief in rat models of neuropathic pain”.

For the molecule “GeXXVIIA-L-Nter (N-terminal fragment of GeXXVIIA-L after Asp-N digestion) (peptide)”, the results for the IC50 of inhibition of ACh-evoked current of the receptor in Xenopus oocytes in test [3] and in test [4] were 222 nM and 2190 nM, respectively. ALMSTGTNYRLLKTC(Cam)RGSGRYC(Cam)RSPYDC(Cam)RRRYC(Cam)RRISDAC(Cam)V [GeXXVIIA-L (disulfide-free linear peptide of GeXXVIIA, Cys residues alkylated with iodoacetamide)]: the IC50 of inhibition of ACh-evoked current of the receptor in Xenopus oocytes in test [4] turned out to be 774 nM.
